Substitutions are numbered along the chain they refer to. Names may count otherwise.
T1: EsCas13d, nuclease-dead (Eubacterium siraeum, UniProt B0MS50, R295A;H300A;R849A;H854A)
T1 sequence: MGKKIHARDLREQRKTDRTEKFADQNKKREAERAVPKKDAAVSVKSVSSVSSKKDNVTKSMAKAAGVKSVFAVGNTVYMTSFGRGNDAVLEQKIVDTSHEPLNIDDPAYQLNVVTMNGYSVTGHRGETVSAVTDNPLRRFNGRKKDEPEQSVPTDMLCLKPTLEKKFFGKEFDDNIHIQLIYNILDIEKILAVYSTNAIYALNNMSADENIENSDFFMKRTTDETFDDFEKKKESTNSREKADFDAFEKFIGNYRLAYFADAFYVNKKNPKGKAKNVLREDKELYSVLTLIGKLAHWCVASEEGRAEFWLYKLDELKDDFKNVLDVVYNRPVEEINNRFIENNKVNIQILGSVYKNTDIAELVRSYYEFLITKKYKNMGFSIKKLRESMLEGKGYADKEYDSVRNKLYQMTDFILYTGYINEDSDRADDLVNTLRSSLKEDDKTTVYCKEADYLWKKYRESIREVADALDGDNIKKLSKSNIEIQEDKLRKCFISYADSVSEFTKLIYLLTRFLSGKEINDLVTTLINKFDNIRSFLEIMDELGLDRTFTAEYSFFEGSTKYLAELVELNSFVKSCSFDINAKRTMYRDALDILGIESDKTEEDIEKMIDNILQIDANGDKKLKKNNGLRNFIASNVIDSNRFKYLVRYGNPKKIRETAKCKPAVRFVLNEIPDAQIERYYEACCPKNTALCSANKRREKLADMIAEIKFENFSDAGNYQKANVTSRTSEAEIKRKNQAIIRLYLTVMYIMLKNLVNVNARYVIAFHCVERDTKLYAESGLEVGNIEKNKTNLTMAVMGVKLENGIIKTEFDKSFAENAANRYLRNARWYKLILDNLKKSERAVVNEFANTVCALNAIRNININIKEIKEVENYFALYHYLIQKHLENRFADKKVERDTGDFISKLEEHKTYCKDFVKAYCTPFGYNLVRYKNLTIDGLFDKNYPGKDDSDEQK

B1: target 1 insU 3' of 9,insG 3' of 4 (mixed)
RNA 1: CACCCGUGCAAAAAUGCAGGGGUCUAAAACUGAGCGGAUAACCUCUCUAUGG
RNA 2: GGGAAUGGAUCCACAUCUACGAAUUCGUACCAUAGAGAGGUUAUUCCGCGUCACCGAGAUCGGAAGAGCACACGU
B2: target 1 insC 3' of 14,insG 3' of 9 (mixed)
RNA 1: B1 RNA 1
RNA 2: B1 RNA 2 with G39C, U41G, A43U, U44A, U45G, C46U, G48C, C49G, G50C
B3: target 1 C7U,A18U (mixed)
RNA 1: B1 RNA 1
RNA 2: GGGAAUGGAUCCACAUCUACGAAUUCGUACCAUUGAGAGGUUAUUCGCUCACCGAGAUCGGAAGAGCACACGU
B4: target 1 U3G,G12U (mixed)
RNA 1: B1 RNA 1
RNA 2: B3 RNA 2 with U34A, G40U, U45C, U49G
B5: target 1 A1C,A9U (mixed)
RNA 1: B1 RNA 1
RNA 2: B3 RNA 2 with U34A, A43U, U45C, A51C
B6: target 1 A9G,A14C (mixed)
RNA 1: B1 RNA 1
RNA 2: B3 RNA 2 with U34A, A38C, A43G, U45C
B7: target 1 insC 3' of 20,insC 3' of 10 (mixed)
RNA 1: B1 RNA 1
RNA 2: GGGAAUGGAUCCACAUCUACGAAUUCGUACCACUAGAGAGGUUCAUCCGCUCACCGAGAUCGGAAGAGCACACGU
B8: target 1 insC 3' of 15,insC 3' of 1 (mixed)
RNA 1: B1 RNA 1
RNA 2: B1 RNA 2 with A38C, G39A, U41G, A43U, U44A, G50U, U51C, C52A, A53C
B9: target 1 G17C,C21A (mixed)
RNA 1: B1 RNA 1
RNA 2: B3 RNA 2 with C31A, U34A, G35C, U45C
B10: target 1 C2A,G13A (mixed)
RNA 1: B1 RNA 1
RNA 2: B3 RNA 2 with U34A, G39A, U45C, C50A
B11: target 1 G5A,C21U (mixed)
RNA 1: B1 RNA 1
RNA 2: B3 RNA 2 with C31U, U34A, U45C, G47A
B12: target 1 insC 3' of 9,insC 3' of 5 (mixed)
RNA 1: B1 RNA 1
RNA 2: B1 RNA 2 with U44C, G50C
B13: target 1 del19,del20 (mixed)
RNA 1: B1 RNA 1
RNA 2: GGGAAUGGAUCCACAUCUACGAAUUCGUACCAGAGAGGUUAUCCGCUCACCGAGAUCGGAAGAGCACACGU
B14: target 1 insC 3' of 14,insA 3' of 3 (mixed)
RNA 1: B1 RNA 1
RNA 2: B1 RNA 2 with G39C, U41G, A43U, U44A, G50U, U51A
B15: target 1 insC 3' of 15,insA 3' of 2 (mixed)
RNA 1: B1 RNA 1
RNA 2: B1 RNA 2 with A38C, G39A, U41G, A43U, U44A, G50U, U51C, C52A
B16: target 1 insC 3' of 8,insU 3' of 1 (mixed)
RNA 1: B1 RNA 1
RNA 2: B1 RNA 2 with U45C, G50U, U51C, C52A, A53U
B17: target 1 insC 3' of 9,insG 3' of 2 (mixed)
RNA 1: B1 RNA 1
RNA 2: B1 RNA 2 with U44C, G50U, U51C, C52G
B18: target 1 C6A,U11C (mixed)
RNA 1: B1 RNA 1
RNA 2: B3 RNA 2 with U34A, U41C, U45C, C46A
B19: target 1 insG 3' of 22,insG 3' of 7 (mixed)
RNA 1: B1 RNA 1
RNA 2: B7 RNA 2 with C31G, A32C, C33A, C44A, A45U, U46C, C47G
B20: target 1 U8G,C22A (mixed)
RNA 1: B1 RNA 1
RNA 2: B3 RNA 2 with C30A, U34A, U44G, U45C
B21: target 1 C6U,G12U (mixed)
RNA 1: B1 RNA 1
RNA 2: B3 RNA 2 with U34A, G40U, U45C, C46U
B22: target 1 insC 3' of 8,insC 3' of 1 (mixed)
RNA 1: B1 RNA 1
RNA 2: B1 RNA 2 with U45C, G50U, U51C, C52A, A53C
B23: target 1 C2U,U10G (mixed)
RNA 1: B1 RNA 1
RNA 2: B3 RNA 2 with U34A, U42G, U45C, C50U
B24: target 1 C2A,G15C (mixed)
RNA 1: B1 RNA 1
RNA 2: B3 RNA 2 with U34A, G37C, U45C, C50A
B25: target 1 insC 3' of 22,insU 3' of 20 (mixed)
RNA 1: B1 RNA 1
RNA 2: GGGAAUGGAUCCACAUCUACGAAUUCGUACCCAUUAGAGAGGUUAUCCGCUCACCGAGAUCGGAAGAGCACACGU
B26: target 1 A14C,C21U (mixed)
RNA 1: B1 RNA 1
RNA 2: B3 RNA 2 with C31U, U34A, A38C, U45C
B27: target 1 del19,del22 (mixed)
RNA 1: B1 RNA 1
RNA 2: B13 RNA 2 with C31A
B28: target 1 insA 3' of 6,insG 3' of 6 (mixed)
RNA 1: B1 RNA 1
RNA 2: B1 RNA 2 with U45C, C47A, C49G, G50C
B29: target 1 del17 (mixed)
RNA 1: B1 RNA 1
RNA 2: GGGAAUGGAUCCACAUCUACGAAUUCGUACCAUAAGAGGUUAUCCGCUCACCGAGAUCGGAAGAGCACACGU
B30: target 1 del13,del20 (mixed)
RNA 1: B1 RNA 1
RNA 2: B13 RNA 2 with A32U, G33A, A34G, G35A, A36G, G37A
B31: target 1 A1G,G17U (mixed)
RNA 1: B1 RNA 1
RNA 2: B3 RNA 2 with U34A, G35U, U45C, A51G
B32: target 1 insC 3' of 15,insG 3' of 3 (mixed)
RNA 1: B1 RNA 1
RNA 2: B1 RNA 2 with A38C, G39A, U41G, A43U, U44A, G50U, U51G
B33: target 1 insA 3' of 11,insC 3' of 9 (mixed)
RNA 1: B1 RNA 1
RNA 2: B1 RNA 2 with U42A, A43U, U44A, U45C, C46U, G48C, C49G, G50C
B34: target 1 insC 3' of 8,insA 3' of 2 (mixed)
RNA 1: B1 RNA 1
RNA 2: B1 RNA 2 with U45C, G50U, U51C, C52A

Target: T1, EsCas13d, nuclease-dead
Assay: crRNA (strand 1, pre-loaded); Mg2+; 40 mM Tris-HCl pH 7.5, 150 mM NaCl, 6 mM MgCl2, 1 mM DTT, 0.1% Tween-20, 0.2 mg/ml BSA; 25 C; 10 min per concentration, then washed
Conditions: tags: His6-TwinStrep-SUMO cleaved; N-terminal SNAP kept (SNAP-Surface 488); label: 3' end held by stalled T7 RNA polymerase

Point of comparison: B25, Kd 18.3 ± 2.7 nM. Against it:
- B1 — within error, 13.6 ± 2.1 nM
- B2 — 2.1-fold higher, 38 ± 9 nM
- B3 — within 1.5-fold, 26.9 ± 2.3 nM
- B4 — 2.2-fold lower, 8.5 ± 0.4 nM
- B5 — within error, 20 ± 5 nM
- B6 — 2.5-fold higher, 46 ± 6 nM
- B7 — 2.1-fold lower, 8.7 ± 0.6 nM
- B8 — within error, 15.6 ± 1.3 nM
- B9 — 2.6-fold higher, 47 ± 12 nM
- B10 — 3.6-fold lower, 5.06 ± 0.27 nM
- B11 — within error, 23 ± 6 nM
- B12 — 1.7-fold lower, 10.9 ± 0.7 nM
- B13 — 1.8-fold higher, 32.4 ± 3.4 nM
- B14 — within 1.5-fold, 24.8 ± 1.9 nM
- B15 — within error, 15.6 ± 0.8 nM
- B16 — within 1.5-fold, 26.3 ± 2.5 nM
- B17 — within 1.5-fold, 13.8 ± 0.7 nM
- B18 — 2.1-fold lower, 8.6 ± 0.7 nM
- B19 — within error, 18.1 ± 1.1 nM
- B20 — 1.5-fold higher, 27.6 ± 3 nM
- B21 — 1.6-fold lower, 11.3 ± 0.8 nM
- B22 — within 1.5-fold, 13 ± 0.9 nM
- B23 — within 1.5-fold, 23.6 ± 1.7 nM
- B24 — 2.2-fold higher, 40 ± 4 nM
- B26 — 2.5-fold lower, 7.3 ± 0.6 nM
- B27 — 3.1-fold higher, 56 ± 16 nM
- B28 — 1.7-fold higher, 32 ± 5 nM
- B29 — within error, 22.6 ± 1.6 nM
- B30 — 3.1-fold higher, 56 ± 8 nM
- B31 — within error, 21.3 ± 2.1 nM
- B32 — 2-fold lower, 9.32 ± 0.33 nM
- B33 — within error, 15.3 ± 0.8 nM
- B34 — within error, 18.9 ± 1.4 nM

From publication PMC10786891, “Massively parallel profiling of RNA-targeting CRISPR-Cas13d”
